{"source": "paper PMC8165646", "biological_target": "HA-tagged mutant (Leu15) AP2σ2 subunit (human) (human) (UniProt P53680)", "test": "co-IP; lysates of HEK293 cells stably expressing FLAG-CaSR with HA-tagged WT or Leu15 AP2σ2; anti-HA-sepharose beads 2 h; blots with anti-AP2α, anti-AP2β2 and anti-AP2μ2 for the endogenous subunits; lysis buffer 0.5% NP40, 135 mM NaCl, 20 mM Tris pH 7.5, 1 mM EDTA"}
{"substance": "AP2α subunit, endogenous in HEK293 (from UniProt O95782 1-977) (natural protein)", "values": [{"measurement": "reduction of the subunit in the HA-AP2σ2 immunoprecipitate, Leu15 cells against WT cells", "value": "> 50", "unit": "%"}]}
